Data as given in paper PMC5156300 (mBio, 2016).

Target: T1, NP from influenza virus A/WSN/33 with a C-terminal His tag (Influenza A virus A/WSN/33), P15682
T1 chain: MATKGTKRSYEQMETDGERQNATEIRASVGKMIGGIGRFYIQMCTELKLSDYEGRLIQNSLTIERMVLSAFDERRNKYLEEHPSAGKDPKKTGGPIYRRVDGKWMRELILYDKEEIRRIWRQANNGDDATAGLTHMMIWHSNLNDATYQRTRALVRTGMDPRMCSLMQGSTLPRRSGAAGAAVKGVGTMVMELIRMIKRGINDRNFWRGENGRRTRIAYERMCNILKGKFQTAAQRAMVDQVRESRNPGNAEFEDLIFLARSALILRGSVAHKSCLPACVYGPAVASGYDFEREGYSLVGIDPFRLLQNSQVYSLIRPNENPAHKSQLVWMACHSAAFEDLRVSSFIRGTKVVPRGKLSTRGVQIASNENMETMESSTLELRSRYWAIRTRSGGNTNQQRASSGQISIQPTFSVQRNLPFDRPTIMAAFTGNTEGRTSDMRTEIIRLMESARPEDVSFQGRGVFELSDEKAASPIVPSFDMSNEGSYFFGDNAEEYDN
Test: crystal structure
Settings: remark: other sources report otherwise

B1: NP from influenza virus A/WSN/33 with a C-terminal His tag, P15682 1-498 (natural protein)
chain: T1 chain
Q: How did the stoichiometry N turn out when B1 was run?
A: 3
